Common to all, as to assay: BLI, IgG
Assay [1] deals with T1, RSV postfusion F (postF), subtype B (respiratory syncytial virus, subtype B).
T1 construct: also called F ΔFP; Postfusion subtype B

Assay [2] has as its target RSV prefusion F (preF), subtype A (respiratory syncytial virus, subtype A, UniProt P03420 26-513).
The target in assay [3] is RSV prefusion F (preF), subtype B (respiratory syncytial virus, subtype B).
Assay [4] has as its target T2, RSV postfusion F (postF), subtype A (respiratory syncytial virus, subtype A, UniProt P03420 26-513).
T2 construct: also called F ΔFP; Postfusion subtype A

Where a chain is given by its changes, count along the chain named.

Broadly, the Kd is the concentration at which binding is half-saturated. A high value points to weaker binding.

B1: ADI-21019 (antibody, V domains shown)
VH: EVQLLESGGGLVRPGGSLRLSCAVSGFTFSGNALTWIRRAPGKGLEWVSTIGDSGGGSYYADSVKGRFTISRDNSKSTLYLQMNSLTAEDTAVYYCARDPYGDYRDYYGIDVWGQGTTVTVSS
VL: EIVMTQSPLSLPVTPGEPASISCRSSQSLRHSNGYNYVDWYLQKPGQSPQLLIYLGSNRASGVPDRFRGSGSGTDFTLKISRVEAEDVGVYYCMQALQTPLTFGQGTKVEIK
B1: the Kd in assay [1] was determined as 0.168 nM; in assay [2], 0.182 nM; in assay [3] it was 0.962 nM; in assay [4], 0.154 nM.

B2: ADI-21011 (antibody, V domains shown)
VH: QVQLQESGPGLVKPSETLSLSCTASGDSISDYYWSWIRQPPGKGLEWIGFVSDTWGTNYSPSLTSRVAISLDTSRSQVSLRLRSVTAADTAVYYCVRTHLYDRGGYYLYYFDYWGQGTLVTVSS
VL: DIRMTQSPPSLSASVGDRVTITCRASQRIASYLNWYQQKPDTAPKLLIYAASNLQTGVPSRFSGSGSGTDFTLTISSLQPEDFATYYCQQSYSTPYTFGQGTKLEIK
Regarding B2, the Kd in assay [1] amounted to 0.356 nM; in assay [2] it was 1.41 nM; in assay [3], 0.982 nM; in assay [4] it was 0.162 nM.

B3: ADI-21012 (antibody, V domains shown)
VH: QVQLVQSGPAVVKPTQTLTLTCSFSGFSLSTSRMSVSWIRQPPGKALEWLARIDWDGDKYYSTSLKSRLTISKDTSKNQVVLTMTNMDPVDTATYYCARGSYYVSSGYYLNYFDYWGQGTLVTVSS
VL: B2 VL with P9S, A25T, R28T, D41G, T42K, K45N, N53I, S93G, Y96Q, L104V
For the molecule B3, the equilibrium dissociation constant (Kd) in assay [1] was found to be 0.28 nM; in assay [2], 0.371 nM; in assay [3], 1.92 nM; in assay [4], 0.214 nM.

B4: ADI-21003 (antibody, V domains shown)
VH: QVQLQQWGAGLLKPSETLSLSCAVSGGSFSGYYWTWIRQPPGKGLEWIGEINHSGSTNYNPSLKSRVTISVDTSKNQFSLKLSSVTAADTAVYYCARARYFDYLAHWSFDLWGRGTLVTVSS
VL: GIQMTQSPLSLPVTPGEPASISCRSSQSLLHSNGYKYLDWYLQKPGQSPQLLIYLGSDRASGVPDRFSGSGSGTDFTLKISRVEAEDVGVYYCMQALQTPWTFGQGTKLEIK
With B4, the Kd in assay [1] came out at 0.421 nM; in assay [2] it was 4.75 nM; in assay [3] it was 0.987 nM; in assay [4], 0.44 nM.

B5: ADI-21004 (antibody, V domains shown)
VH: QVQLQESGGGVVQPGRSLTLSCAASGFTFSSYGMHWVRQAPGKGLDWVAEIWYDGSNKYYVDSVKGRFTISRDNSKNTLYLQMKSLRAEDTAIYYCARDGGYESPFFDKWGQGTLVTVSS
VL: EIVMTQSPDSLGVSLGERATINCKSSQSLYTSNHENSLAWYQQKPGQPPRLLIYWASTRELGVPDRFSGSGSGTDFTLTISSLQAEDVAVYYCQQYHTTPLTFGPGTKVEIK
Regarding B5, the Kd is 0.798 nM in assay [1], 4.59 nM in assay [2], 10.2 nM in assay [3] and 0.54 nM in assay [4].

B6: ADI-21008 (antibody, V domains shown)
VH: QVQLQESGAGLLKPSETLSLTCTVYGGTFSGYHWNWIRQPPGKGLEWIGEINHRENTDYNASLESRVTISVDTSKRQFSLKMNSVTVADTAVYYCARGIQVLTNLGTEVRVHQFLDLWGRGTLVTVSS
VL: DIVLTQTPATLSLSPGERATLSCRASQSVSTYLAWYQQKPGQAPRLLIYDASNRAAGIPARFSGSGSGTDFTLTISSLEPEDFAVYYCQQRTNWLPLTFGGGTKVDIK
notes: also called Ab 259
As to B6, the Kd is 1.45 nM in assay [1], 5.68 nM in assay [2], 4.14 nM in assay [3] and 0.918 nM in assay [4].

B7: ADI-21007 (antibody, V domains shown)
VH: QVQLVQSGADVKKPGASVKVSCKSSGYTFSNHSMHWVRQAPGQGLEWMGRIHPSSGTTTYAQKFQGRVTMTRDTSTSTVYMEVSSLRSEDTAVYYCARSPFFDFDFWGQGTMVTVSS
VL: SYVLTQPHSVSESPGKTVTISCTRSSGSIASNYVQWYQQRPGSAPTSVIYEDNQRPSGVPDRFSGSIDSTSNSASLTISGLKTEDEADYYCQSYYSSGWVFGGGTKLTVL
B7: the equilibrium dissociation constant (Kd) in assay [1] came out at 0.171 nM; in assay [2] it was 1.48 nM; in assay [3] it was 1.72 nM; in assay [4], 0.171 nM.
